In PMC9372627:

How the values were obtained:
Trio_(1284-2638) (human) = Trio_(1284-2638) (human) (UniProt O75962)

Chain of Gαq·GDP·AlF4^- (P21279 whole entry): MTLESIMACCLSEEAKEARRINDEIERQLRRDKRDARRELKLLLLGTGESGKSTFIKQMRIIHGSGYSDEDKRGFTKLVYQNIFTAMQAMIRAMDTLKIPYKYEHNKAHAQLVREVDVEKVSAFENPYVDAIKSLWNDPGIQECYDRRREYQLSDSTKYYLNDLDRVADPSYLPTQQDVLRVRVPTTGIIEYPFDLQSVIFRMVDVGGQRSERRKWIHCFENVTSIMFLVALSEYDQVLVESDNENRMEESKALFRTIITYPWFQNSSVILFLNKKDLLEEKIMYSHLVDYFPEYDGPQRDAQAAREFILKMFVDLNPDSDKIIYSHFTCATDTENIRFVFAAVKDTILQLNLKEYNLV

“Gαq·GDP·AlF4^- (from UniProt P21279 1-359) (natural protein)” was tested. Which RhoA GEF activity (FRET-based nucleotide exchange assay with MANT-GTP), enhancement by 200 nM Gαq·GDP·AlF4^- (TrioC (human)) did it give?
The RhoA GEF activity (FRET-based nucleotide exchange assay with MANT-GTP), enhancement by 200 nM Gαq·GDP·AlF4^- was 2.5 fold.

What about the RhoA GEF activity (FRET-based nucleotide exchange assay with MANT-GTP), enhancement by 200 nM Gαq·GDP·AlF4^- (Trio_(1284-2638) (human)) of the same substance?
Its RhoA GEF activity (FRET-based nucleotide exchange assay with MANT-GTP), enhancement by 200 nM Gαq·GDP·AlF4^- is 2.5 fold.
